According to patent publication US20160168247A1 (published 2016):
Residue numbers refer to the chain shown, from its start. Blank lines part the entries; values can stand above or below the binder they belong to.

Experiments:
[1] = biological target: T1, human CD3 (on the human T-cell line Jurkat or on human T-cells) (human, UniProt P09693 23-182; P20963 22-164); test: FACS binding; Fig 1B
HSC-F [2] = biological target: T2, HSC-F (cynomolgus monkey, UniProt Q95LI8 22-171; Q95LI7 23-181); test: FACS binding
T2 chain: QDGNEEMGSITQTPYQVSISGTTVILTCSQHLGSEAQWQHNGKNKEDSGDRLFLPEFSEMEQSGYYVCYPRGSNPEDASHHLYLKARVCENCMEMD

HSC-F [3] = biological target: T2, HSC-F; test: FACS binding; Fig 2B
HSC-F [4] = biological target: T2, HSC-F; test: FACS binding; Fig 2A
HSC-F [5] = biological target: T2, HSC-F; test: FACS binding
[6] = biological target: T1, human CD3 (on the human T-cell line …); test: FACS binding
[7] = biological target: T1, human CD3 (on the human T-cell line …); test: FACS binding; Fig 1A
[8] = biological target: T1, human CD3 (on the human T-cell line …); test: FACS binding; remark: listed apart in the source
HSC-F [9] = biological target: T2, HSC-F; test: FACS binding; second row printed H4L1; graph legend indicates H4L3

T1 sequence (chain, as listed by the source, chain 1 of 4): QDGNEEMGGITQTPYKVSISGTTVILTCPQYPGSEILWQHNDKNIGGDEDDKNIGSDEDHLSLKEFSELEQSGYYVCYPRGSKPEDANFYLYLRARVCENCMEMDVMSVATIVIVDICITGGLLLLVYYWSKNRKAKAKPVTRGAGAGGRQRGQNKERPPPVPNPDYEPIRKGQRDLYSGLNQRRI
T1 sequence (chain, as listed by the source, chain 2 of 4): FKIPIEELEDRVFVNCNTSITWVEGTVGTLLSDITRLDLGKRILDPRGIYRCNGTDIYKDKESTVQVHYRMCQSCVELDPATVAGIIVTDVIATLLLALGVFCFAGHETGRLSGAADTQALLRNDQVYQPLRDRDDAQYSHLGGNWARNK
T1 sequence (P09693 23-182, chain 3 of 4): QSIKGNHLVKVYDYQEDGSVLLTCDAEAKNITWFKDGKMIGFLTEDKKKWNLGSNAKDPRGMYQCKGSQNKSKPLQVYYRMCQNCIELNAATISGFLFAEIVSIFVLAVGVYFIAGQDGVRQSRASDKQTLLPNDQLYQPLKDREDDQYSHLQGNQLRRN
T1 sequence (P20963 22-164, chain 4 of 4): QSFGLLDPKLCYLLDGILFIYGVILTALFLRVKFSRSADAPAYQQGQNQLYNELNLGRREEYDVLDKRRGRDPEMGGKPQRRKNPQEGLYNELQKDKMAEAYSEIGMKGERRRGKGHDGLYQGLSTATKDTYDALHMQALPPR

- EC50 [1]: 0.68 µg/mL
B1: bsIgG1 CD3×HER2 (bispecific antibody, V domains shown)
VH 1: EVKLLESGGGLVQPKGSLKLSCAASGFTFNTYAMNWVRQAPGKGLEWVARIRSKYNNYATYYADSVKDRFTISRDDSQSILYLQMNNLKTEDTAMYYCVRHGNFGNSYVSWFAYWGQGTLVTVSA
VL 1: QAVVTQESALTTSPGETVTLTCRSSTGAVTTSNYANWVQEKPDHLFTGLIGGTNKRAPGVPARFSGSLIGDKAALTITGAQTEDEAIYFCALWYSNLWVFGGGTKLTVL
VH 2: QVQLVQSGAEVKKPGASVKVSCKASGYTFTNYGISWVRQAPGQGLEWMGWLSAYSGNTIYAQKLQGRVTMTTDTSTTTAYMELRSLRSDDTAVYYCARDRIVVRPDYFDYWGQGTLVTVSS
VL 2: EIVLTQSPATLSLSPGERATLSCRASQSVSSYLAWYQQKPGQAPRLLIYDASNRATGIPARFSGSGSGTDFTLTISSLEPEDFAVYYCQQRSNWPRTFGQGTKVEIK

- EC50 (HSC-F [2]): 0.06 µg/mL
- EC50 (HSC-F [3]): 0.47 µg/mL
- EC50 (HSC-F [4]): 0.3 µg/mL
- EC50 (HSC-F [5]): 0.06 µg/mL
B2: IgG1-CD3-LFLEDA (antibody, V domains shown)
VH: B1 VH 1
VL: B1 VL 1

- EC50 (HSC-F [3]): 4.46 µg/mL
B3: bsIgG1 CD3xHER2-LFLEDA (bispecific antibody, V domains shown)
VH 1: B1 VH 1
VL 1: B1 VL 1
VH 2: B1 VH 2
VL 2: B1 VL 2

- EC50 [1]: 0.07 µg/mL
- EC50 [6]: 0.27 µg/mL
- EC50 [7]: 0.08 µg/mL
- EC50 [8]: 0.18 µg/mL
B4: IgG1-CD3-LFLEDA (parental chimeric CD3 antibody with non-activating LFLEDA mutations) (antibody, V domains shown)
VH: B1 VH 1
VL: B1 VL 1

- EC50 (HSC-F [2]): 0.04 µg/mL
- EC50 [1]: 0.04 µg/mL
- EC50 (HSC-F [3]): 0.3 µg/mL
- EC50 [6]: 0.1 µg/mL
- EC50 (HSC-F [4]): 0.19 µg/mL
- EC50 [7]: 0.04 µg/mL
B5: IgG1-huCD3-H3L1-LFLEDA (antibody, V domains shown)
VH: B1 VH 1 with L5V, Q13K, K15G, G16R, K19R, Q78K, N87S, A125S
VL: not shown

- EC50 (HSC-F [9]): 0.24 µg/mL
B6: bsIgG1-huCD3-H4L1xHER2-LFLEDA (bispecific antibody, V domains shown)
VH 1: B1 VH 1 with L5V, Q13K, K15G, G16R, K19R, Q78K, N87S, L120M, A125S
VL 1: QAVVTQEPSFSVSPGGTVTLTCRSSTGAVTTSNYANWVQQTPGQAFRGLIGGTNKRAPGVPARFSGSILGNKAALTITGAQADDESDYYCALWYSNLWVFGGGTKLTVL
VH 2: B1 VH 2
VL 2: B1 VL 2

- EC50 [1]: 0.28 µg/mL
- EC50 [8]: 0.64 µg/mL
B7: bsIgG1 huCD3-H3L1×HER2-LFLEDA (bispecific antibody, V domains shown)
VH 1: B1 VH 1 with L5V, Q13K, K15G, G16R, K19R, Q78K, N87S, A125S
VL 1: not shown
VH 2: B1 VH 2
VL 2: B1 VL 2

- EC50 (HSC-F [3]): 3.54 µg/mL
B8: bsIgG1 huCD3-H3L1xHER2-LFLEDA (bispecific antibody, V domains shown)
VH 1: B1 VH 1 with L5V, Q13K, K15G, G16R, K19R, Q78K, N87S, A125S
VL 1: not shown
VH 2: B1 VH 2
VL 2: B1 VL 2
